T1: human Abl SH2 domain (human, UniProt P00519 112-232, limits assumed)
T1 construct: domain: SH2 domain; poly-histidine tagged in selection; tag cleaved for SPR and crystals; also called Ab1SH2; SH2 domain of Abl kinase
T1 sequence (looked up): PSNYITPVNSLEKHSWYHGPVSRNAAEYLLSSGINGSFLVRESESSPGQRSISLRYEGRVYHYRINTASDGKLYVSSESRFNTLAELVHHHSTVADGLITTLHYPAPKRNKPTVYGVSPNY


Target: T2, human serum albumin (human, UniProt P02768 25-609)
T2 construct: also called HSA
Test: cradle library selection hit

T2 sequence (P02768 25-609 limits assumed): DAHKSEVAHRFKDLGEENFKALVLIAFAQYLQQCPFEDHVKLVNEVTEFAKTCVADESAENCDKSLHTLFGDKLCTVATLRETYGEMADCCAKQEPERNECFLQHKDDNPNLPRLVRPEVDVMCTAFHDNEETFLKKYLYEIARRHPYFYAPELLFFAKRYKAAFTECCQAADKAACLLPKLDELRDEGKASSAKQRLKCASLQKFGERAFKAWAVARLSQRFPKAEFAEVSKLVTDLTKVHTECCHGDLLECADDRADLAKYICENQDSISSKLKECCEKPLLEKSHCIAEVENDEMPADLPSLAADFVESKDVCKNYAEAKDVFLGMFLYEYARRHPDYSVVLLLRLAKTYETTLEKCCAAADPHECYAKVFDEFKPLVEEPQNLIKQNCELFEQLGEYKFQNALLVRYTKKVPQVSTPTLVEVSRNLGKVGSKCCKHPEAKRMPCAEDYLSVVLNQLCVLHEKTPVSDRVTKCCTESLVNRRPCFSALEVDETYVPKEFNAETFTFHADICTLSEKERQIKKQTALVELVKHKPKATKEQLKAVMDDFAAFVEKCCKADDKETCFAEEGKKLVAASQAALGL

Binder | binding result
SEQ ID NO 271 (designed binder) NVSPPRRARVTDATETTITISWRTKTETITSFYVRALPVSAWPIQRTIKPDVRSYTITGLQPGTGYNIGLVTLYYGASYVPVVIDAST | binds
SEQ ID NO 262 (designed binder) NVSPPRSARVTDATETTITISWRTKTETITYFVVGAFPAYSAHVDIQRTIKPDVRSYTITGLQPGTGYIINLETLINATGYPVVIDAST | binds
SEQ ID NO 249 (designed binder) NVSPPRRARVTDATETTITISWRTKTETITYFGVRAYPTYRSSIQRTIKPDVRSYTITGLQPGTLYRISLYTLDSAGYNPVVIDAST | binds
SEQ ID NO 274 (designed binder) NVSPPRRARVTDATETTITISWRTKTETITGFHVFASPWYSGSQSIQRTIKPDVRSYTITGLQPGTTYYIGLNTLYIPGHEPPVVIDAST | binds
SEQ ID NO 255 (designed binder) NVSPPRRARVTDATETTITISWRTKTETITEFFVMAEPYYGEGYYIQRTIKPDVRSYTITGLQPGTSYSINLYTLKRPYLYPVVIDAST | binds
SEQ ID NO 269 (designed binder) NVSPPRRARVTDATETTITISWRTKTETITAFNVYASPEYWRYGYFRFIQRTIKPDVRSYTITGLQPGTGYYIYLYTLYHKYGYYPVVIDAST | binds
SEQ ID NO 275 (designed binder) NVSPPRRARVTDATETTITISWRTKTETITSFYVDAGPWYRPDAYEYIQRTIKPDVRSYTITGLQPGTGYSIQLYTLYAYAYLYPVVIDAST | binds
SEQ ID NO 256 (designed binder) NVSPPRRARVTDATETTITISWRTKTETITSFYVMAQPTNYYGQSTYIQRTIKPDVRSYTITGLQPGTYYGIQLYTLMYRASAPVVIDAST | binds
SEQ ID NO 268 (designed binder) NVSPPRRARVTDATETTITISWRTKTETITYFYVYAKPRYINSIQRTIKPDVRSYTITGLQPGTDYSIYLDTLYWGGEYGPVVIDAST | binds
SEQ ID NO 277 (designed binder) NVSPPRRARVTDATETTITISWRTKTETITTFMVVAYPMFQYRIQRTIKPDVRSYTITGLQPGTSYTIYLQTLGYASWYPVVIDAST | binds
SEQ ID NO 259 (designed binder) NVSPPRRARVTDATETTITISWRTKTETITYFSVYANPMYPFYIQRTIKPDVRSYTITGLQPGTYYEIYLGTLYYFATYPVVIDAST | binds
SEQ ID NO 248 (designed binder) NVSPPRRARVTDATETTITISWRTKTETITYFGVGADPAMYIEYPYIQRTIKPDVRSYTITGLQPGTQYGIYLTTLSQASDYPVVIDAST | binds
SEQ ID NO 267 (designed binder) NVSPPRRARVTDATETTITISWRTKTETITWFYVSAFPLLVDGIQRTIKPDVRSYTITGLQPGTYYGINLYTLSSYPVVIDAST | binds
SEQ ID NO 254 (designed binder) NVSPPRRARVTDATETTITISWRTKTETITYFSVEAYPRWYALIQRTIKPDVRSYTITGLQPGTSYYIYLWTLMMDTSSPVVIDAST | binds
SEQ ID NO 253 (designed binder) NVSPPRRARVTDATETTITISWRTKTETITRFYVSAQPRFYYYNIQRTIKPDVRSYTITGLQPGTDYTIGLYTLGVYMHYPVVIDAST | binds

Other lines, results leading:

binding result | Binder
binds | SEQ ID NO 257 (designed binder) NVSPPRRARVTDATETTITISWRTKTETITTFDVYAYPGYGGSYWSIQRTIKPDVRSYTITGLQPGTSYEIELETLHYSHAYPVVIDAST
binds | SEQ ID NO 251 (designed binder) NVSPPRRARVTDATETTITISWRTKTETITEFDVGADPGKGHAIQRTIKPDVRSYTITGLQPGTSYLIGLRTLNRVLHYPVVIDAST
binds | SEQ ID NO 276 (designed binder) NVSPPRRARVTDATETTITISWRTKTETITLFYVYAYPRYYPGIQRTIKPDVRSYTITGLQPGTSYSIYLSTLWDTKGYPVVIDAST
binds | SEQ ID NO 250 (designed binder) NVSPPRRARVTDATETTITISWRTKTETITQFSVYAYPARSKYHIQRTIKPDVRSYTITGLQPGTGYRIYLQTLGGYSDEPVVIDAST
binds | SEQ ID NO 252 (designed binder) NVSPPRRARVTDATETTITISWRTKTETITSFRVDAGPGVAGSIQRTIKPDVRSYTITGLQPGTYYQIQLAALAYGYYPVVIDAST
binds | SEQ ID NO 246 (designed binder) NVSPPRRARVTDATETTITISWRTKTETITYFYVAADPTEDGKIQRTIKPDVRSYTITGLQPGTYYTIHLRTLYYLVAVPVVIDAST
binds | SEQ ID NO 272 (designed binder) NVSPPRRARVTDATETTITISWRTKTETITAFYVGAHPWYNLEIQRTIKPDVRSYTITGLQPGTGYVISLYTLWHHNEAPVVIDAST
binds | SEQ ID NO 258 (designed binder) NVSPPRRARVTDATETTITISWRTKTETITYFSVLAHPLEVSSYSIQRTIKPDVRSYTITGLQPGTGYRIFLSTLRWYYGMPVVIDAST
binds | SEQ ID NO 265 (designed binder) NVSPPRRARVTDATETTITISWRTKTETITYFHVNAQPSSPPWIQRTIKPDVRSYTITGLQPGTYYGISLYTLSWRGEYHPVVIDAST
binds | SEQ ID NO 245 (designed binder) NVSPPRRARVTDATETTITISWRTKTETITDFGVVASPYLGQGIQRTIKPDVRSYTITGLQPGTAYSIKLHTLHVHDYYPVVIDAST
binds | SEQ ID NO 266 (designed binder) NVSPPRRARVTDATETTITISWRTKTETITRFSVLAYPSKRTTYTPIQRTIKPDVRSYTITGLQPGTGYTIRLYTLSPYYWVYPVVIDAST
binds | SEQ ID NO 270 (designed binder) NVSPPRRARVTDATETTITISWRTKTETITAFYVHAVPMLWVVNGIQRTIKPDVRSYTITGLQPGTSYTINLETLRMSSHYYPVVIDAST
binds | SEQ ID NO 261 (designed binder) NVSPPRRARVTDATETTITISWRTKTETITYFKVRAYPAYNYGGWSIQRTIKPDVRSYTITGLQPGTYYSIYLDTLYLGAYWYPVVIDAST
binds | SEQ ID NO 260 (designed binder) NVSPPRRARVTDATETTITISWRTKTETITYFYVSAYPYYVAYDIQRTIKPDVRSYTITGLQPGTYYDINLSTLSYSDNSPVVIDAST
binds | SEQ ID NO 264 (designed binder) NVSPPRRARVTDATETTITISWRTKTETITTFRVWARPYLYYWIQRTIKPDVRSYTITGLQPGTHYDIGLSTLSSTWYYPVVIDAST
binds | SEQ ID NO 273 (designed binder) NVSPPRRARVTDATETTITISWRTKTETITSFWVHAYPSGASGGIQRTIKPDVRSYTITGLQPGTNYGIALATLTHYYTYSPVVIDAST
binds | SEQ ID NO 263 (designed binder) NVSPPRRARVTDATETTITISWRTKTETITQFWVLAGPSVWTGRMSIQRTIKPDVRSYTITGLQPGTTYYIGLYTLQYYEYSPVVIDAST

Target: T1, human Abl SH2 domain
Test: phage display selection hit, BL1 library

Binder | binding result
SEQ ID NO 43 (designed binder) VSSVPTKLEVVAATPTSLLISWDAPAVTVVHYHITYGETGGNSPVQEFTVPGSKSTATISGLSPGVDYTITVYADWQYSYMYSPISINYRT | binds
SEQ ID NO 40 (designed binder) VSSVPTKLEVVAATPTSLLISWDAPAVYHYVYLITYGETGGNSPVQEFTVPGSKSTATISGLSPGVDYTITVYAKWKYSYQYSPISINYRT | binds
SEQ ID NO 29 (designed binder) VSSVPTKLEVVAATPTSLLISWDAPAVTVVYYVITYGETGGNSPVQEFTVPGSKSTATISGLSPGVDYTITVYAWYTFQYDYYVTQSSPISINYRT | binds
SEQ ID NO 33 (designed binder) VSSVPTKLEVVAATPTSLLISWDAPAVTVDYYYITYGETGGNSPVQEFTVPGSKSTATISGLSPGVDYTITVYAWYQHDFDYHVWGSSPISINYRT | binds

The next lines start with the values.

binding result | Binder
binds | SEQ ID NO 34 (designed binder) VSSVPTKLEVVAATPTSLLISWDAPAVTVHYYVITYGETGWWGPVQEFTVPGSKSTATISGLSPGVDYTITVYAYWKYSYKYSPISINYRT
binds | SEQ ID NO 28 (designed binder) VSSVPTKLEVVAATPTSLLISWDAPAVTVDHYVITYGETGGYPSPVQTFTVPGSKSTATISGLSPGVDYTITVYAWDYDWYAIGSPISINYRT

Reference: US20140057807A1 (UNIVERSITY OF CHICAGO, published 2014)
